Test results: the supplement of paper PMC11246515
± gives the standard deviation of the averaged measurements.

Test: total protein half-life in vivo (active degradation + dilution); higher = more stable protein
[1] = E. coli NCM3722 delta-clpP delta-lon delta-hslV, growth: N-lim chemostat, doubling time 6 h
[2] = E. coli NCM3722 delta-clpP, growth: N-lim chemostat, doubling time 6 h
[3] = E. coli NCM3722 delta-hslV, growth: N-lim chemostat, doubling time 6 h
[4] = E. coli NCM3722 delta-lon, growth: N-lim chemostat, doubling time 6 h
[5] = E. coli NCM3722 delta-smpB, growth: N-lim chemostat, doubling time 6 h
[6] = wild type E. coli NCM3722, growth: C-lim chemostat, doubling time 3 h
[7] = wild type E. coli NCM3722, growth: C-lim chemostat, doubling time 6 h
[8] = wild type E. coli NCM3722, growth: C-lim chemostat, doubling time 12 h
[9] = wild type E. coli NCM3722, growth: N-lim chemostat, doubling time 6 h
[10] = wild type E. coli NCM3722, growth: N-lim chemostat, doubling time 12 h
[11] = wild type E. coli NCM3722, growth: P-lim chemostat, doubling time 6 h
[12] = wild type E. coli NCM3722, growth: P-lim chemostat, doubling time 12 h

Sequence	total protein half-life in vivo [1] [h]	total protein half-life in vivo [2] [h]	total protein half-life in vivo [3] [h]	total protein half-life in vivo [4] [h]	total protein half-life in vivo [5] [h]	total protein half-life in vivo [6] [h]	total protein half-life in vivo [7] [h]	total protein half-life in vivo [8] [h]	total protein half-life in vivo [9] [h]	total protein half-life in vivo [10] [h]	total protein half-life in vivo [11] [h]	total protein half-life in vivo [12] [h]
MPSTPEEKKKVLTRVRRIRGQIDALERSLEGDAECRAILQQIAAVRGAANGLMAEVLESHIRETFDRNDCYSREVSQSVDDTIELVRAYLK [P0AAP3]	6.53 ± 0.38	5.29 ± 0.36	4.99 ± 0.14	> 8	3.92 ± 0.13	2.5 ± 0.24	5.52 ± 0.22	8.3 ± 1.8	4.16 ± 0.36	7.59	4.67 ± 1.9	8.57 ± 0.52
MPTKPPYPREAYIVTIEKGKPGQTVTWYQLRADHPKPDSLISEHPTAQEAMDAKKRYEDPDKE [P0AAN5]		5.03 ± 0.57	5.08 ± 0.48	5.38 ± 1.4	4.72 ± 0.16	3.69	3.08	7.61	4.1 ± 0.042	8.6 ± 1.8	5.3	9.63 ± 1.6
MPTSHENALQQRCQQIVTSPVLSPEQKRHFLALEAENNLPYPQLPAEARRALDEGVICDMFEGHAPYKPRYVLPDYARFLANGSEWLELEGAKDLDDALSLLTILYHHVPSVTSMPVYLGQLDALLQPYVRILTQDEIDVRIKRFWRYLDRTLPDAFMHANIGPSDSPITRAILRADAELKQVSPNLTFIYDPEITPDDLLLEVAKNICECSKPHIANGPVHDKIFTKGGYGIVSCYNSLPLAGGGSTLVRLNLKAIAERSESLDDFFTRTLPHYCQQQIAIIDARCEFLYQQSHFFENSFLVKEGLINPERFVPMFGMYGLAEAVNLLCEKEGIAARYGKEAAANEVGYRISAQLAEFVANTPVKYGWQKRAMLHAQSGISSDIGTTPGARLPYGDEPDPITHLQTVAPHHAYYYSGISDILTLDETIKRNPQALVQLCLGAFKAGMREFTANVSGNDLVRVTGYMVRLSDLEKYRAEGSRTNTTWLGEEAARNTRILERQPRVISHEQQMRFSQ	4.57			3.47		2.7	3.94	6.17			3.51	5.66
MPVITLPDGSQRHYDHAVSPMDVALDIGPGLAKACIAGRVNGELVDACDLIENDAQLSIITAKDEEGLEIIRHSCAHLLGHAIKQLWPHTKMAIGPVIDNGFYYDVDLDRTLTQEDVEALEKRMHELAEKNYDVIKKKVSWHEARETFANRGESYKVSILDENIAHDDKPGLYFHEEYVDMCRGPHVPNMRFCHHFKLMKTAGAYWRGDSNNKMLQRIYGTAWADKKALNAYLQRLEEAAKRDHRKIGKQLDLYHMQEEAPGMVFWHNDGWTIFRELEVFVRSKLKEYQYQEVKGPFMMDRVLWEKTGHWDNYKDAMFTTSSENREYCIKPMNCPGHVQIFNQGLKSYRDLPLRMAEFGSCHRNEPSGSLHGLMRVRGFTQDDAHIFCTEEQIRDEVNGCIRLVYDMYSTFGFEKIVVKLSTRPEKRIGSDEMWDRAEADLAVALEENNIPFEYQLGEGAFYGPKIEFTLYDCLDRAWQCGTVQLDFSLPSRLSASYVGEDNERKVPVMIHRAILGSMERFIGILTEEFAGFFPTWLAPVQVVIMNITDSQSEYVNELTQKLSNAGIRVKADLRNEKIGFKIREHTLRRVPYMLVCGDKEVESGKVAVRTRRGKDLGSMDVNEVIEKLQQEIRSRSLKQLEE [P0A8M3]	5.73 ± 0.81	5.78 ± 1.1	5.411 ± 0.034	6.36 ± 0.29	5.34 ± 0.06	3.18 ± 0.052	6.43 ± 0.58	11.3 ± 0.88	5.35 ± 0.11	9.648 ± 0.077	5.99 ± 0.14	13.3 ± 0.97
MPYDSVYSEKRPPGTLRTAWRKFYSDASAMVGLYGCAGLAVLCIFGGWFAPYGIDQQFLGYQLLPPSWSRYGEVSFFLGTDDLGRDVLSRLLSGAAPTVGGAFVVTLAATICGLVLGTFAGATHGLRSAVLNHILDTLLAIPSLLLAIIVVAFAGPSLSHAMFAVWLALLPRMVRSIYSMVHDELEKEYVIAARLDGASTLNILWFAVMPNITAGLVTEITRALSMAILDIAALGFLDLGAQLPSPEWGAMLGDALELIYVAPWTVMLPGAAIMISVLLVNLLGDGVRRAIIAGVE [P0AGH5]	6.49	6.66				3.28 ± 0.12		11.5	6.2 ± 0.26	12.8	5.92	13.7
MPYLLEMKNITKTFGSVKAIDNVCLRLNAGEIVSLCGENGSGKSTLMKVLCGIYPHGSYEGEIIFAGEEIQASHIRDTERKGIAIIHQELALVKELTVLENIFLGNEITHNGIMDYDLMTLRCQKLLAQVSLSISPDTRVGDLGLGQQQLVEIAKALNKQVRLLILDEPTASLTEQETSILLDIIRDLQQHGIACIYISHKLNEVKAISDTICVIRDGQHIGTRDAAGMSEDDIITMMVGRELTALYPNEPHTTGDEILRIEHLTAWHPVNRHIKRVNDVSFSLKRGEILGIAGLVGAGRTETIQCLFGVWPGQWEGKIYIDGKQVDIRNCQQAIAQGIAMVPEDRKRDGIVPVMAVGKNITLAALNKFTGGISQLDDAAEQKCILESIQQLKVKTSSPDLAIGRLSGGNQQKAILARCLLLNPRILILDEPTRGIDIGAKYEIYKLINQLVQQGIAVIVISSELPEVLGLSDRVLVMHEGKLKANLINHNLTQEQVMEAALRSEHHVEKQSV						2.9 ± 0.53		7.37 ± 2.8				9.14
